Results as given in patent US20250144228A1, “NANOBODY-DRUG ADDUCTS AND USES THEREOF” (priority 2022, published 2025).

Assays:
mouse IgG2b = mouse IgG2b (Mus musculus, UniProt P01837); assay type: binding; conditions: mouse IgG2b-coated ELISA plates
[1] = test system: P. falciparum merozoite surface protein 1 (MSP-1) subunits p83, p38, p42; assay: ELISA of biotinylated VHHs on plate-bound MSP-1 subunits; assay type: binding, Plasmodium falciparum; conditions: streptavidin-HRP and TMB
Protocol: (§1) FIGS. 13A-13D: VHH nanobodies bind specifically to Plasmodium falciparum: merozoite surface protein 1 (MSP-1). FIG. 13A: Schematic of the PfMSP-1 pro-peptide and the four inclusive subunits: p83, p30, p38, and p42. FIG. 13B: Purified […] B4, anti-p38 B8, anti-p42 A6, and anti-p42 G11 VHHs were biotinylated and these VHHs were incubated with plate bound subunits proteins as indicated. Binding ELISA was detected by using streptavidin-HRP and tetramethylbenzidine (TMB). Data are represented as optical density (OD). Error bars show SEM. FIG. 13C: Western blot of VHHs against the three PfMSP-1 subunits, the full length p190 pro-peptide, and some 3D7 lysates from −38-44 hour 3D7 schizonts. FIG. 13D: Flow cytometry on synchronized ˜38-44 hour 3D7 schizonts using fluorescently (Cy5) labeled VHHs.
(§2) Purified VHH nanobodies were biotinylated and tested for specificity toward isolated MSP-1 subunits. Anti-p83 B4, anti-p38 B8, anti-p42 A6, and anti-p42 G11 VHHs were each incubated with plate-bound p83, p38, p42, and p42, and binding to the plates was detected by an enzyme-linked immunoassay (ELISA) using streptavidin-horseradish peroxidase (HRP) and tetramethylbenzidine (TMB). […] Finally, purified VHHs were tested against live ˜38-44 hour 3D7 schizonts in a flow cytometry assay.

[2] = target: T1, PfMSP-1 subunits, full length p190 pro-peptide (Plasmodium falciparum, UniProt Q8I0U8); assay type: binding
T1 construct: the three PfMSP-1 subunits, the full length p190 pro-peptide
T1 sequence (Q8I0U8 20-1699): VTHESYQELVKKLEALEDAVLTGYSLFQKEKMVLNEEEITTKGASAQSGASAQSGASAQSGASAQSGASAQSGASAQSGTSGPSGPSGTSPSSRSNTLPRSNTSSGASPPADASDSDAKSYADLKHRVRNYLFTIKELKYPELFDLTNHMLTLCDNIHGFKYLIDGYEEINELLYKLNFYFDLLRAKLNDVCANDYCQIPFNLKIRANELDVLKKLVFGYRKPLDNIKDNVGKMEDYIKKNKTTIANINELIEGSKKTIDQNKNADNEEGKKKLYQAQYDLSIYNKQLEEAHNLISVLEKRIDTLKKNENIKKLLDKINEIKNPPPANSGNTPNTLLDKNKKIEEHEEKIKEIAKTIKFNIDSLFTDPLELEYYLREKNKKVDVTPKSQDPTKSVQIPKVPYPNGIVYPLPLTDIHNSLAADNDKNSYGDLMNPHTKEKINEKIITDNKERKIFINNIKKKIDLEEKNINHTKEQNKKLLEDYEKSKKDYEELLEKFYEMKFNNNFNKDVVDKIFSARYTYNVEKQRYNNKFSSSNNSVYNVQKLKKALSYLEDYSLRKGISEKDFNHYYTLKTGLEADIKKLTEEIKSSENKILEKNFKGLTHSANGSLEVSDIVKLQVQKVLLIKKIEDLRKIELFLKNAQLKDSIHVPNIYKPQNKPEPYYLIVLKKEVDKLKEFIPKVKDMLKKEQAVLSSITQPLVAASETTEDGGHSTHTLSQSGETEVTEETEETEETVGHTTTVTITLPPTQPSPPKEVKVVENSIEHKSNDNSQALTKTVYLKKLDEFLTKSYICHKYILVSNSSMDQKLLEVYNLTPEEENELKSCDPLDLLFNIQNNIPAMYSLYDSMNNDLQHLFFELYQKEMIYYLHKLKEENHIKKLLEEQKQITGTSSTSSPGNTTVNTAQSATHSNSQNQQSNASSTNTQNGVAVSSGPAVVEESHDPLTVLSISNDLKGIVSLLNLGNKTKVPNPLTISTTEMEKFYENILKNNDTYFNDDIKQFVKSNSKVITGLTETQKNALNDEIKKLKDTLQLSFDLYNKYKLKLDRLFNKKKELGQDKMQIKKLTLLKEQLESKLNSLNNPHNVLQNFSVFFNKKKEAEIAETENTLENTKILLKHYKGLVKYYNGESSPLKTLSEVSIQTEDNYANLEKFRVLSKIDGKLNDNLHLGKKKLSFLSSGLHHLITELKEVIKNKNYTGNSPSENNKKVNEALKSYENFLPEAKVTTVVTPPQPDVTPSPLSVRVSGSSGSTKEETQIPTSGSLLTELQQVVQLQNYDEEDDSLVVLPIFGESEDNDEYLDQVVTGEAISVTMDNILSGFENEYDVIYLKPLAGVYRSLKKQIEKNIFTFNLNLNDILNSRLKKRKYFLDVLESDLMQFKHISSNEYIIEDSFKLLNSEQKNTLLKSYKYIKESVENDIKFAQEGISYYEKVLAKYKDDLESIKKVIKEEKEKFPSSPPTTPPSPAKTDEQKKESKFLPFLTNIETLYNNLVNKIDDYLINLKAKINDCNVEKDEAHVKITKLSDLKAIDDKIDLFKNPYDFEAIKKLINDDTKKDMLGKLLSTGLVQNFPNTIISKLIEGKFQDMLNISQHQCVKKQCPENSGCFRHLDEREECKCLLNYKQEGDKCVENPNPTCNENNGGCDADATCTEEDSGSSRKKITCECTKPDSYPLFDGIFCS
Protocol: as §1, with “FIG.” for “FIGS. 13A-13D: VHH nanobodies bind specifically to Plasmodium falciparum: merozoite surface protein 1 (MSP-1). FIG.”
as §2

[3] = test system: PfMSP-1 subunits, full length p190 pro-peptide; assay type: binding, Plasmodium falciparum
Protocol: as §1, with “FIG.” for “FIGS. 13A-13D: VHH nanobodies bind specifically to Plasmodium falciparum: merozoite surface protein 1 (MSP-1). FIG.”
as §2

| Molecule | binding to mouse IgG2b (in words) (mouse IgG2b) | binding to plate-bound MSP-1 subunits (ELISA) [1] | binding to lysate from ˜38-44 hour 3D7 schizonts [2] | binding to MSP-1 subunits and pro-peptide p190 (gel electrophoresis / Western blot) [3] |
| --- | --- | --- | --- | --- |
| VHHkappa: commercially available anti-mouse kappa chain VHH (nanobody clone TP1170), SEQ ID NO: 1 (protein) VHH: QVQLVESGGGWVQPGGSLRLSCAASGFTFSDTAMMWVRQAPGKGREWVAAIDTGGGYTYYADSVKGRFTISRDNAKNTLYLQMNSLKPEDTARYYCAKTYSGNYYSNYTVANYGTTGRGTLVTVSSGG | nanomolar affinity | – | – | – |
| Anti-p83 B4: VHH specific for P. falciparum MSP-1 p83, SEQ ID NO: 12 (protein) VHH: QLQLVESGGGLAQAGGSLRLSCAASGRTSSTKPMGWFRQAPGLEREFVASISWLGGSTLYSDSVKGRFTISRDNAKNTVYLQMNSLKSEDTAVYYCAGGTSAYSGRDSSRYEYWGQGTQVTVSSLPETGGHHHHHH | – | bind specifically to one subunit | observed to bind | bind to one subunit of MSP-1 and to the MSP-1 pro-peptide (p190), but not to any other subunit |
